Data set [1] deals with the molecule itself. The data set is described as follows: Assembly column; self-assembly.
Data set [2] deals with the molecule itself. The data set is described as follows: analytical SEC of purified protein; self-assembly.
Data set [3] concerns the molecule itself. The data set is described as follows: Assembly column; screening of labeled lysates; self-assembly.
Experimental: For fluorescence analysis, cells were lysed by sonication in 25 mM TRIS pH 7.5, 300 mM NaCl, 8.5 mM MgCl₂, 1 mM dithiothreitol (DTT) supplemented with 1 mM phenylmethanesulfonyl fluoride, and the lysates cleared by centrifugation. […] The labeling reaction was allowed to proceed at 37° C. for 30 min, after which the labeled lysates were analyzed by native PAGE or fluorescence SEC. […] Gels were imaged fluorescently using a Fotodyne gel imaging system equipped with appropriate LEDs and filters.
Data set [4] concerns the molecule itself. In words: analytical ultracentrifugation c(s) distribution at 4.8 and 2.4 mg mL^-1 (FIG. 4); self-assembly.

B1: T3-10 with C-terminal (His)6 tag (designed binder)
chain: MTEKEKMLAEKWYDANFDQTLINERLRAKVICFALNHTNPVATMMRKVLIDALFQTTTDNVSISIPFDTDYGWNVKLGKNVYVNTNCYFMDGGQITIGDNVFIGPNCGFYTATHPLNFHHRNEGFEKAGPIHIGSNTWFGGHVAVLPGVTIGEGSVIGAGSVVTKDIPPHSLAVGNPCKVVRKIDNDLPSETLNDETIKLEHHHHHH
notes: Variant of T3-08 with 3 further mutations
Take B1: the binding result in data set [1] is given as “binds”.

B2: T3-08 with C-terminal (His)6 tag (designed binder)
chain: MTEKEKMLAEKWYDANFDQTLINERLRAKVICFALNHTNPSATLKRKVLIDALFQTTTDNVSISIPFDTDYGWNVKLGKNVYVNTNCYFMDGGQITIGDNVFIGPNCGFYTATHPLNFHHRNEGFEKAGPIHIGSNTWFGGHVAVLPGVTIGEGSVIGAGSVVTKDIPPHSLAVGNPCKVVRKIDNDLPSETLNDETIKLEHHHHHH
notes: four trimers assemble to a 12-subunit tetrahedral cage; Derived from PDB 3FTT with 8 mutations; also called tetrahedral design
In the case of B2, the binding result in data set [2] is on record as “binds”.

B3: O3-33, construct with peptide tag for fluorescent labeling, in labeled E. coli lysate (designed binder)
chain: MSQAIGILELTSIAAGMELGDAMLKSANVDLLVSKTISPGKFLLMLGGDIGAIQQAIETGTSQAGELLVDSLVLANIHPSVLPAISGLNSVDKRQAVGIVETWSVAACISAADRAVKGSNVTLVRVHMAFGIGGKCYMVVAGDVSDVALAVTVASSSAGAYGLLVYASLIPRPHEAMWRQMVEG
modifications: peptide tag labeled with CoA-488 by AcpS
notes: also called octahedral design
With B3, in data set [3], the binding result is on record as “binds”.

B4: T3-08, construct with peptide tag for fluorescent labeling, in labeled E. coli lysate (designed binder)
chain: MTEKEKMLAEKWYDANFDQTLINERLRAKVICFALNHTNPSATLKRKVLIDALFQTTTDNVSISIPFDTDYGWNVKLGKNVYVNTNCYFMDGGQITIGDNVFIGPNCGFYTATHPLNFHHRNEGFEKAGPIHIGSNTWFGGHVAVLPGVTIGEGSVIGAGSVVTKDIPPHSLAVGNPCKVVRKIDNDLPSETLNDETIK
modifications: peptide tag labeled with CoA-488 by AcpS
notes: also called tetrahedral design
Regarding B4, the binding result in data set [3] is “binds”.

B5: O3-33 with C-terminal (His)6 tag (designed binder)
chain: MSQAIGILELTSIAAGMELGDAMLKSANVDLLVSKTISPGKFLLMLGGDIGAIQQAIETGTSQAGELLVDSLVLANIHPSVLPAISGLNSVDKRQAVGIVETWSVAACISAADRAVKGSNVTLVRVHMAFGIGGKCYMVVAGDVSDVALAVTVASSSAGAYGLLVYASLIPRPHEAMWRQMVEGLEHHHHHH
notes: eight trimers self-assemble through the designed interface to a 24-subunit octahedral cage; Derived from PDB 3N79 with 9 mutations; also called 03-33; octahedral design
For B5, the binding result in data set [4] was “binds”.

These data come from patent publication US20130274441A1 (University of California, published 2013).
